Source: patent publication US12397035B2, “Compositions and methods for treatment” (Celosia Therapeutics Pty Ltd, priority 2019, dated 2025)

Experiments:
Type in all cases: binding
[1] = biological target: T1, TDP-43 (Homo sapiens, UniProt Q13148); assay: Co-immunoprecipitation of Fx (α-helix 6 of 14-3-3θ) with TDP-43; conditions: Fx expressed in cells, FIG. 5
T1 construct: expressed in transfected cells; host or cells: 293T HEK cells
Description: Immunoprecipitation. Immunoprecipitation was performed as previously described (Ittner et al., 2009, J Biol Chem 284: 20909-20916). Briefly, 293T HEK cells were co-transfected with variants of TDP-43 in pcDNA3.1/V5 and/or 14-3-3 isoforms/variants. Cells were lysed in RIPA buffer. Equal amounts of proteins were incubated overnight with 1 ul of V5 antibody (Life Technologies) and precipitated using magnetic Protein G beads (Life Technologies). Co-immunoprecipitation was further confirmed by Western blotting using myc antibodies.
Western blotting. Western blotting was performed as previously described (Ke et al., 2012, PLoS One 7: e35678). Primary antibodies used for immunoblotting were human TDP-43, c-terminal TDP-43, pan-TDP-43 (Proteintech), 14-3-3θ (Abeam), V5, myc (Life Technologies), phospho-TDP-43 S409/410 (Cosmobio), GAPDH (Merck-Millipore).
Cell culture and staining. All immunorecipitation experiments were carried out in 293T HEK cells. Cells were maintained in DMEM containing 10% fetal bovine serum (FBS) as per standard protocols. SH-SY5Y cells were maintained in DMEM/F-12 containing 10% FBS and used for 14-3-3θ overexpression or knockdown. Stable overexpression and knockdown of 14-3-3θ were achieved through lentiviral transduction. For immunocytochemistry, cells were fixed in 4% PFA and blocked with 3% heat-inactivated goat serum/2% BSA. […]

[2] = biological target: T2, YES-associated protein (YAP) (Homo sapiens, UniProt P46937); assay: Co-immunoprecipitation of Fx with known 14-3-3θ partner YAP; conditions: data not shown
T2 construct: host or cells: 293T HEK cells

[3] = biological target: T3, FOXO1 (Homo sapiens, UniProt Q12778); assay: Co-immunoprecipitation of Fx with known 14-3-3θ partner FOXO1; conditions: data not shown
T3 construct: host or cells: 293T HEK cells
T3 sequence (Q12778 whole entry, species assumed): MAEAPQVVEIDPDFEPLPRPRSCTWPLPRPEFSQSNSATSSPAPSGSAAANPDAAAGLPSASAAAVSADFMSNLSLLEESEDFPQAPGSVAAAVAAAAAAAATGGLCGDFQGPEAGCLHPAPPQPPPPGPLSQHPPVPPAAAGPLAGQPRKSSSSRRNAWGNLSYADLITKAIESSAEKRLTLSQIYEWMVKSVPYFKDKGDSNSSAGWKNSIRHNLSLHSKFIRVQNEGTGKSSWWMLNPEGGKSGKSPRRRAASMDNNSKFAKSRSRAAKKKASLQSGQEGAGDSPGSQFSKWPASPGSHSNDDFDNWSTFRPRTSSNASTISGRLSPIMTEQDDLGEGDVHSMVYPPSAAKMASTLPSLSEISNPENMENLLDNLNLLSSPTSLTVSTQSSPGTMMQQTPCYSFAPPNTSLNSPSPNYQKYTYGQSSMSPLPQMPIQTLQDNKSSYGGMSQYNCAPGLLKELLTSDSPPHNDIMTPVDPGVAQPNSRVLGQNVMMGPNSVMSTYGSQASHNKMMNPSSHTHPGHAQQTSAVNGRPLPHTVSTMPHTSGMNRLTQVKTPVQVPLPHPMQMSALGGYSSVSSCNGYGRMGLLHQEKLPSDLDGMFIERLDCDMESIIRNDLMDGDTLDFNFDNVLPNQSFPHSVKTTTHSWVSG

T2 sequence (P46937 whole entry): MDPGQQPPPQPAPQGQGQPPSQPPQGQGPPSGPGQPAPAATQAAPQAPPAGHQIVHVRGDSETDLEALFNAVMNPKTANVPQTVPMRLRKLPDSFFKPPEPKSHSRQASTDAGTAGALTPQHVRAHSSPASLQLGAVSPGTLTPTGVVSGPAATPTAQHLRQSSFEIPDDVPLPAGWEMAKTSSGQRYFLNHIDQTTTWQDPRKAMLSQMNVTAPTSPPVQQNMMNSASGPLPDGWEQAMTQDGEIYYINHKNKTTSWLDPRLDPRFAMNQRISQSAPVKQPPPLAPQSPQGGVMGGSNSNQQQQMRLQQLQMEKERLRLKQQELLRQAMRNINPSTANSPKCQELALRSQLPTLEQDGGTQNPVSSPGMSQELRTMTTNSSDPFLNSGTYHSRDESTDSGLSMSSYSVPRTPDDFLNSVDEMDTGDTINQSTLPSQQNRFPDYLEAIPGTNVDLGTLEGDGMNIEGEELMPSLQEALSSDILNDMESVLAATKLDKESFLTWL
T1 sequence (Q13148 whole entry): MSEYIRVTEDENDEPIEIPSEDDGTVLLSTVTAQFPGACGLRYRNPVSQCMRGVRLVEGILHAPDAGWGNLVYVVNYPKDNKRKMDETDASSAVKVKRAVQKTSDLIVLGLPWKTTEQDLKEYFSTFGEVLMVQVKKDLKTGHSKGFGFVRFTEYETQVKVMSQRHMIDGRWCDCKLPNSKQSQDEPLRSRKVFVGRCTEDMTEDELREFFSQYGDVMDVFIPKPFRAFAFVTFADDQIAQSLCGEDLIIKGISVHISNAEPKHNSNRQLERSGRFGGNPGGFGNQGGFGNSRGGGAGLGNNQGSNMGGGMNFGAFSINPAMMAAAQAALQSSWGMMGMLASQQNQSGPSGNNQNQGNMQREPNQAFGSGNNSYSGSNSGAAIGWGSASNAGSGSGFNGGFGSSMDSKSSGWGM

Substance: Fx: construct including only α-helix 6 (αF) of 14-3-3θ, 30 amino acid sequence SEQ ID NO:2 (amino acids 135-164) (GDDRKQTIDNSQGAYQEAFDISKKEMQPTH; V5 tag in some forms; listed as Homo sapiens)
- co-precipitation of TDP-43 [1]: co-precipitated TDP-43
- pull down of YES-associated protein (YAP) [2]: failed to pull down
- pull down of FOXO1 [3]: failed to pull down
